Experimental data published in patent US20040166543A1 (Dana-Farber, published 2004).

B1: MUC1/CD (purified hexahistidine tagged MUC1 cytoplasmic domain), unphosphorylated (other)
chain: CQCRRKNYGQLDIFPARDTYHPMSEYPTYHTHGRYVPPSSTDRSPYEKVSAGNGGSSLSYTNPAVAATSANL
notes: also called His-MUC1/CD; MUC1/CD (WT); not shown: hexahistidine tag
B2: MUC1/CD phosphorylated by c-Src (incubated with c-Src and ATP) (other)
chain: CQCRRKNYGQLDIFPARDTYHPMSEYPTYHTHGRYVPPSSTDRSPYEKVSAGNGGSSLSYTNPAVAATSANL
modifications: phosphotyrosine at 46 (YEKV site) and at other sites that are not named; made in vitro with purified c-Src and ATP
notes: also called phosphorylated MUC1/CD; not shown: hexahistidine tag

Columns and labels:
[1] = target: T1, glutathione S-transferase (GST) (UniProt P08515 1-218 = GST); assay: GST pull-down, anti-MUC1/CD immunoblot (FIG. 1B)
[2] = target: T1, glutathione S-transferase (GST); assay: GST pull-down, anti-MUC1/CD immunoblot (FIG. 4A)
Method: The proteins in the eight different reaction mixtures were incubated with either GST or GST fused to β-catenin (“GST-β-Cat”). The resulting mixtures were incubated with glutathione-Sepharose 4B™ beads.
The beads were then added to the phosphorylation reaction mixture (described above) which was incubated for 1 h at 4° C.

T1 sequence (P08515 whole entry): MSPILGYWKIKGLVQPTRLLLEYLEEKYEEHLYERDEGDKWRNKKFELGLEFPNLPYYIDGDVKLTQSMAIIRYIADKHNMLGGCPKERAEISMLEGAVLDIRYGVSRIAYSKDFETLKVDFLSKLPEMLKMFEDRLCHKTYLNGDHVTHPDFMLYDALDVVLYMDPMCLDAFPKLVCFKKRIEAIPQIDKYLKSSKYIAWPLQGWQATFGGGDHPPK

Binder | binding result [1] | binding result [2]
B1 | no binding | 
B2 |  | no binding
